According to FireProtDB (doi:10.1016/0022-2836(82)90184-x):

Conditions: Escherichia coli (strain K12), 25 °C, GdnHCl, CD, reversible: yes, whole UniProt chain shown

B1: Tryptophan synthase alpha chain wild type, P0A877 (protein)
chain: MERYESLFAQLKERKEGAFVPFVTLGDPGIEQSLKIIDTLIEAGADALELGIPFSDPLADGPTIQNATLRAFAAGVTPAQCFEMLALIRQKHPTIPIGLLMYANLVFNKGIDEFYAQCEKVGVDSVLVADVPVEESAPFRQAALRHNVAPIFICPPNADDDLLRQIASYGRGYTYLLSRAGVTGAENRAALPLNHLVAKLKEYNAAPPLQGFGISAPDQVKAAIDAGAAGAISGSAIVKIIEQHINEPEKMLAALKVFVQPMKAATRS
pH 5.5, acetate 0.05 M
  unfolding free energy: 5.2 kcal/mol
pH 7, Potassium phosphate 0.01 M
  unfolding free energy: 8.8 kcal/mol
pH 9, Tris-HCl 0.025 M
  unfolding free energy: 4.9 kcal/mol
